This is an account of results in publication PMC3281039, “Tetrahydrodipicolinate N-Succinyltransferase and Dihydrodipicolinate Synthase from Pseudomonas aeruginosa: Structure Analysis and Gene Deletion” (PLoS ONE, 2012).

For data set [1], the target named is T1, tetrahydrodipicolinate N-succinyltransferase (DapD, PA3666) (Pseudomonas aeruginosa, UniProt G3XD76).
T1 sequence (G3XD76 1-344): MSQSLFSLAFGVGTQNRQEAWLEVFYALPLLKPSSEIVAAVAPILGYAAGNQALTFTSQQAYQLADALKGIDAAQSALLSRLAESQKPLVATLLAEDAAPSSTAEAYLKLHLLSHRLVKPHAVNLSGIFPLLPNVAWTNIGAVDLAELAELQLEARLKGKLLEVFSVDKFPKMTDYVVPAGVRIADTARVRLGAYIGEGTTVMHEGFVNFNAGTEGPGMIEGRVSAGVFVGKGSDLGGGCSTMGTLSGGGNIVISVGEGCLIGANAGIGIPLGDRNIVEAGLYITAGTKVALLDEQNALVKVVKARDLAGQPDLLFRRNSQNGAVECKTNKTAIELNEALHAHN
The data set can be described thus: crystal structure at […] Å with CoA; succinate from […] in the crystallization buffer. It is filed as binding. Also on record: recombinant DapD; model residues 1–245 and 251–343.

Data set [2] has as its target Tetrahydrodipicolinate N-succinyltransferase (DapD, PA3666) from Pseudomonas aeruginosa (Pseudomonas aeruginosa PAO1). In words: SEC; analytical size exclusion chromatography, Superdex-200 10/30, 25 mM Tris-HCl pH 8.0, 150 mM NaCl; calibrated with chymotrypsinogen-A, ovalbumin, albumin, catalase, ferritin.
The target is the same in data set [3]. The data set can be described thus: crystal structure; PaDapD, hanging drops, 19-20% PEG3350, 0.3-0.4 M succinate pH 6.2; tetragonal P4(1)2(1)2 (apo, CoA-succinate) and monoclinic P2(1) (apo, L-2AP, D-2AP) crystal forms.
Data set [4] concerns the target T1, tetrahydrodipicolinate N-succinyltransferase (DapD, PA3666). The data set can be described thus: crystal structure at […] Å (co-crystallization), with succinate. Also on record: recombinant DapD; model residues 1–245 and 251–343. It counts as binding.
The target is the same in data set [5]. In words: crystal structure at […] Å (soaking); IC50 in DTNB succinyltransferase assay. It counts as biochemical. Also on record: recombinant DapD with Gly-Ser-His at the N-terminus after thrombin cleavage; residues 330–344 not modeled.
Data set [6] deals with the molecule itself. The data set can be described thus: SEC; analytical size exclusion chromatography, Superdex-200 10/30, 25 mM Tris-HCl pH 8.0, 150 mM NaCl; calibrated with chymotrypsinogen-A, ovalbumin, albumin, catalase, ferritin.
Substrate in data set [7]: N[C@@H](CCCCC(=O)O)C(=O)O
The data set can be described thus: purified protein. It counts as biochemical, Pseudomonas aeruginosa. The conditions noted are these: active site groove between two subunits of the homotrimer; two arginines (Arg181, Arg193), Asn209, Ala226, Glu221.

Some results are limits rather than exact numbers.

Regarding `O=C(O)CCC(=O)O` [succinate], the “crystal structure at 2.40 Å with CoA; succinate from 0.4 M in the crystallizatio” value in data set [1] was “contains a succinate molecule bound next to the acceptor arm of the CoA in the active site cleft”.

Turning to “Tetrahydrodipicolinate N-succinyltransferase (DapD, PA3666) from Pseudomonas aeruginosa (enzyme)”, the stoichiometry N in data set [2] and in data set [3] was 3 throughout.

As for `CC(C)(COP(=O)(O)OP(=O)(O)OC[C@H]1O[C@@H](n2cnc3c(N)ncnc32)[C@H](O)[C@@H]1OP(=O)(O)O)[C@@H](O)C(=O)NCCC(=O)NCCS` [CoA, coenzyme A], in data set [4], the “crystal structure at 2.40 Å (co-crystallization), with succinate” value is reported as “Coenzyme A is bound in this narrow cleft formed at the interface of two adjacent subunits”. As to `N[C@H](CCCCC(=O)O)C(=O)O` [D-2AP, D-2-aminopimelate], the IC50 in data set [5] was above 20 mM.

B1: Dihydrodipicolinate synthase (DapA, PA1010) from Pseudomonas aeruginosa (enzyme, Pseudomonas aeruginosa PAO1)
chain: MIAGSMVALVTPFDAQGRLDWDSLAKLVDFHLQEGTNAIVAVGTTGESATLDVEEHIQVIRRVVDQVKGRIPVIAGTGANSTREAVALTEAAKSGGADACLLVTPYYNKPTQEGMYQHFRHIAEAVAIPQILYNVPGRTSCDMLPETVERLSKVPNIIGIKEATGDLQRAKEVIERVGKDFLVYSGDDATAVELMLLGGKGNISVTANVAPRAMSDLCAAAMRGDAAAARAINDRLMPLHKALFIESNPIPVKWALHEMGLIPEGIRLPLTWLSPRCHEPLRQAMRQTGVLA
notes: Dihydrodipicolinate synthase DapA, locus PA1010, Pseudomonas aeruginosa PAO1; the gene coding for DapA was cloned in pNIC28Bsa4 by LIC; the final model holds residues 1-291 (chain A) and 2-291 (chains B, C, D); N-terminal His6 tag with TEV site from vector pNIC28Bsa4 (GenBank EF198106); also called PaDapA; source: E. coli BL21(DE3), purified (Ni-NTA, Sephadex G-25 desalting); not shown: His6, …
As for B1, the “stoichiometry N” value in data set [6] stood at 2.

B2: tetrahydrodipicolinate N-succinyltransferase (DapD, PA3666) (Pseudomonas aeruginosa PAO1) (protein)
chain: T1 sequence (G3XD76 1-344)
notes: recombinant DapD with Gly-Ser-His at the N-terminus after thrombin cleavage; residues 330–344 not modeled
With B2, in data set [7], the Km was 7.0 mM.
